# Test results published in the RNAGym collection of RNA variant scans (doi:10.1073/pnas.2313332121).
# B1: TPR t1 (parent)
# chain: GACCAAUCUGCCCUCAGAGCUCGAGAACAUCUUCGGAUGCAGAGGAGGCAGGCUUCGGUGGCGCGAUAGCGCCAACGUCCUCAACCUCCAAUGCAUCCCACCACAUGAUGAUGCCUGAAGAGCCUUGGUUUUUUG
# Variants of: B1
# Assay: polymerase ribozyme fitness, log enrichment relative to wild type (log ratio); higher = more active; in vitro selection for triplet polymerase activity
# Method in brief: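 Fitness compares each genotype's enrichment to that of the wild type on a logarithmic scale, averaging replicates with inverse-variance weights. The logarithm is base 2. Enrichment came from Illumina sequencing of input and output libraries after one triplicate round of in vitro selection, which included frozen incubation at −7 °C, of PCR-built, transcribed mutant libraries of each subunit of a heterodimeric triplet polymerase ribozyme. Only genotypes with ≥10 input reads and ≥1 read per output were kept.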
row,Variant,polymerase ribozyme fitness (log ratio)
1,U7C C12U U106A C115U G127U,-1.03
2,U7A U14A A37G G69A,-3.91
3,U7A G47A,-0.612
4,U7A G47C,-1.26
5,U7A G45A G58A U59C,-2.17
6,U7A U130A,-0.147
7,U7C C8G G45A C53U G63A U87A,-1.06
8,U7C A18G G117C,-4.72
9,U7C A27G A46U G48U U59G G60U,-3.46
10,U7A G71C G110C,-6.39
11,U7A G17U C62U A111C G135U,-4.01
12,U7C G58A C70U U78C U116C U131G,-1.13
13,U7C C13U G47U C85A A111U,-5.01
14,U7C C8G U21C C62G U78A,-1.85
15,U7A G10A G52U C62G,-2.23
16,U7C A46U C76G,-0.0822
17,U7C G23U A29G G60U G117A G128U,-6.24
18,U7C G61A U87G,0.298
19,U7A G44C,-0.264
20,U7A U9C U78A G110U,-1.82
21,U7C A37G G57A C62U,-5.38
22,U7C U14G A74C,-1.29
23,U7A U9C U67C C94G G113C,-7.09
24,U7C A91U G117U,-2.74

row,Variant,polymerase ribozyme fitness (log ratio)
1,U7C U14A C22U G47U C56G G60A G120U,-7.5
2,U7A U21C C114A,-0.182
3,U7A G71A,-0.425
4,U7A U92A A103C,-5.64
5,U7A G36A A43U U54A C101U U112A,-6.85
6,U7A U106G G128C,-4.39
7,U7C G17U G35C U96A C97U U112A,-6.44
8,U7A U14A G44U,-2.04
9,U7C C13U,0.52
10,U7C C13G,0.00167
11,U7C A46G A108G C123A,-1.51
12,U7C C8G G61A C79A G110A,-2.75
13,U7C C40G A95U C102A,-5.2
14,U7A U112A,1.69
15,U7C A74C C98U U112A,-2.74
16,U7C A27G G69C,-2.37
17,U7C G60A C89G U130G,-1.83
18,U7C A27G G63A,-1.53
19,U7C A18C G42U G77U A84U,-2.98
20,U7C U14G G48U,-2.35
21,U7C C20G,-4.91
22,U7A G10A G52A C115U,-1.15
23,U7A C97A C101U U112C,-2.6
24,U7A G42A G60C,-2.37

row,Variant,polymerase ribozyme fitness (log ratio)
1,U7C G47A G48A G69U U78C,-0.567
2,U7C C34A,-2.72
3,U7C C15U G45A U92A,-4.93
4,U7A G10C C56U C62U C80A A84U G110A C124A U133A,-7.38
5,U7A G110C,-3.41
6,U7C U14A U32A C53G G63C G120A,-4.32
7,U7A G69C C115A,0.0666
8,U7C G48U A91U G113U G117A,-7.92
9,U7A G48U C94G U116C G120A,-2.95
10,U7C C11U,0.539
11,U7A G69U C80U C99U C124G,0.126
12,U7A U116G,-1.35
13,U7C C40A,-0.659
14,U7A G45A C49G G71A C80U A84U C104U,-4.66
15,U7C G17C A121G,-1.82
16,U7C C28A U78A C123U,-3
17,U7A U9G C73U C79G A84G U96C,-2.27
18,U7C U14A A46U C64U,-2.69
19,U7A G120C,1.32
20,U7A G120A,1.77
21,U7A G39C U55C,-1.1
22,U7A C114G,-2.07
23,U7A C114A,-1.29
24,U7C G61C,-1.87

row,Variant,polymerase ribozyme fitness (log ratio)
1,U7C C73A C101U,0.14
2,U7C C12G G44A U92A C102A C123U,-7.32
3,U7C G69U C80A A83U G128C,-5.37
4,U7A G63U C80A,-4.19
5,U7C C40A U109A U129A,-6.42
6,U7A G60A C64U C124A U133C,-1.69
7,U7C G17U C31U A95C C123U,-6.24
8,U7C C8G C85A U112G,-1.68
9,U7C A26G G45A,-2.55
10,U7A C124A,2.16
11,U7C C53U G71A U92G C114U,-2.79
12,U7C G17A,-1.12
13,U7A U9G C70U C73U C79G A84G U96C,-4.92
14,U7A G39A A50U C53G U130C,-4.47
15,U7A G36C A37G C97U G113C,-3.07
16,U7A G17U,-1.25
17,U7C A74G C79A G93A U106C G117U U129C U130C,-5.05
18,U7C C101G,-1.98
19,U7C C101A,-0.57
20,U7C C11A C98A,-6.8
21,U7C G42A C76U C101U G120C C123A,-3
22,U7A G44C C70G,-3.95
23,U7C A27U G36C G57A A74U,-4.85
24,U7A U9G C82G,-0.227

row,Variant,polymerase ribozyme fitness (log ratio)
1,U7A G122U,-1.47
2,U7A G122A,-0.674
3,U7C C8G C64G C85A U112G,-6.03
4,U7C A46C G60U,-0.333
5,U7C G52U C98U C124A,-0.108
6,U7C G48C C70U,-0.869
7,U7C G36U G47C G48C,-2.23
8,U7C C12A C15A C20G G69U C80U C104A C114A G127C,-6.96
9,U7A G39U G69U,0.59
10,U7A G39U G69A,-3.24
11,U7A U109G,-2.9
12,U7C,0.304
13,U7C A27G C62U G63A,-2.76
14,U7C C85A C104U U116C,-1.6
15,U7C G71A,-0.421
16,U7A U92A,-2.1
17,U7A G19U U87G,-3.3
18,U7C C11G A27U G35U G45A U59C A84G C101U A121U,-8.13
19,U7C G71U U112A U133A,1.1
20,U7A G60A U81A,-0.716
21,U7C G48U C53U G77A U81A U96C G120C,-2
22,U7A G10A C53U G61C,-0.31
23,U7C G17A A24G A26C C49A C56U C73G U87C G113A,-7
24,U7A U38C A41C G44U,-3.32

row,Variant,polymerase ribozyme fitness (log ratio)
1,U7A G10A C28G C73A U109A A119G C123G,-5.03
2,U7A G47A U96A,-1.96
3,U7C G17A A84U,-2.39
4,U7C G10A U14A C53G C56G A84U G117U,-6.36
5,U7A G17U A111C G135U,-3.91
6,U7A U9G A46C C85G,-1.96
7,U7C C98U U112A,-1.84
8,U7C C22U C64U C88U C123U,-2.65
9,U7A G10U G93A,-0.792
10,U7C C124G,1.82
11,U7A G35A G71A G77C C124A,-5.19
12,U7C C34A G35U C56U C94A G110C,-7.29
13,U7C C13U A105U,-1.79
14,U7C A90C G93A G117U U132A,-4.79
15,U7C C8U A46U C56G G128U,-3.61
16,U7A G39C A74G G107U G120U U130C,-4.02
17,U7C A27C,-2.46
18,U7C C15A A46U G48U U130C,-2.63
19,U7A U87A G127A,-1.5
20,U7C G44U,-0.497
21,U7A G10C C72U,-0.8
22,U7C G77C,-0.0984
23,U7C G42C C72A C88U C115U,-1.49
24,U7C C8G G17U C40A C89G A91C U126G,-4.01

row,Variant,polymerase ribozyme fitness (log ratio)
1,U7C C11G G65C A83U G120C A121U,-6.35
2,U7C G10C G60C C102U U112C,-2.68
3,U7C G135U,-0.566
4,U7A G36U G45U C86U,-3.34
5,U7C C49A G61U A75U U96A,-0.699
6,U7C A16G C20U G120U,-2.78
7,U7C A18C,-1.7
8,U7C G69A C88A,-2.92
9,U7C U9C,0.297
10,U7C G36A U116C A118U U132A,-2.98
11,U7A U55A U87C,0.229
12,U7C A91G C123U U126A,0.505
13,U7C C85G,-1.66
14,U7A U9A C20U U38A G47U C56A G60U C72G C114A A121U C123U,-4.89
15,U7A G61A U112G,0.622
16,U7C G44A C79U C86U,-1.45
17,U7C C64U A100U,-0.384
18,U7A G42U G58C G71U C88U G113A,-2.19
19,U7C C40U C98A A121C,-3.62
20,U7A G48C,-0.566
21,U7A U21C C70U G71C A90G,-2.31
22,U7C C101U C104U,0.219
23,U7C G17A A41G G52U,-3.17
